Laboratory results taken from patent US20210115121A1 (UCB, published 2021).
Values joined by “and” are separate entries in the source; they are usually repeats but may differ in a detail not shown here. Identical values can stand only once. Each block holds one binder with its values, some of them ahead of it.

Experiments:
[1] = target: T1, Tau from human Alzheimer's disease brain (isolated Tau PHF fibrils from Alzheimer's disease patients) (human, UniProt P10636-8 2-441, limits assumed); assay: cell-based or functional assay
[2] = target: T2, tau peptide 234-250, N-acetyl-KSPSSAKSRLQTAPVPM-amide (human); assay: X-ray crystallography of the Fab/peptide co-complex
T2 peptide: Ac-KSPSSAKSRLQTAPVPM-NH2
Source text: We collected the x-ray diffraction data through a single L14H18 Fab/tau peptide 234-250 crystal. The crystal was suspended in a litho loop and flash frozen under liquid nitrogen, after briefly passing through a cryoprotectant solution containing 30% polyethylene glycol 4000, 0.2M calcium chloride, 0.1M HEPES buffer pH 7.5 and 10% ethylene glycol. The diffraction data was collected on a Pilatis 6M at the 104-1 beamline station at the Diamond synchrotron, Didcot, Oxfordshire, UK. The wavelength of the monochromatic x-ray beam was 0.92819A. The reciprocal space was sampled at 0.2° oscillation steps around the φ goniostat axis. The processed data XIA file provided from the synchrotron facility was used for structure determination
For model building the computer program Coot (Emsley P., Lohkamp B., Scott W. G., Cowton K. Acta Crystallography D Biol Crystallography, 2010 April; 66 (Pt 4): 486-501) was used. Refinement was carried out using the program REFMAC (Murshudov G. N., Skubak P., Lebedev A. A., Pannu N. S., Steiner R. A., Nicholls R. A., Winn M. D., Long F., Vagin A. A. Acta Crystallogr D Biol Crystallogr 2011 April; 67 (Pt 4): 355-67).
The interaction between antibody L14H18 and tau peptide, N-acetyl-[…]-amide (based on human tau isoform 2 sequence 234 to 250), was studied by x-ray crystallography using a co-complex prepared from L14H18 Fab fragment incubated with the peptide. […]

[3] = target: Tau from human progressive supranuclear palsy brain (human, UniProt P10636-8 2-441, limits assumed); assay: cell-based or functional assay
[4] = target: Tau from human frontotemporal dementia brain (human, UniProt P10636-8 2-441, limits assumed); assay: cell-based or functional assay
[5] = target: human Tau P301L from brain of P301L Tau transgenic mice (human, UniProt P10636-8 2-441, limits assumed); assay: cell-based or functional assay
[6] = target: T3, monomeric Tau isoform-2 expressed in E. coli (human, UniProt P10636 2-758); assay: SPR, Biacore T200, Tau amine-immobilised, mFab as analyte
T3 construct: also called Ecoli iso-2; E. coli Tau
Experimental: (§1) Absorption at 280 nm was used to determine the concentration of the Fab stock solutions for the BIAcore analysis. An insoluble Tau protein preparation from Alzheimer's disease patients (AD-PHF, fraction 11), the HEK-derived Tau isoform-2 monomers (amino acids 1-441), and the isoform-2 monomers expressed in E. coli were amine immobilized onto the CMS chip, and binding of anti-Tau mFabs was measured with the Biacore T200 instrument. The buffer HBS-EP from GE Healthcare was used for immobilizations apart from the AD-PHF for which 10 mM acetic acid (pH3.0) was used. The HBS-EP+buffer was supplemented with 300 mM NaCl and 1.25% CM-Dextran (Sigma) and used as the assay buffer. While flow cell (Fc) 1 was used as a reference, the following RU values were obtained for Fc2-4: 44 RU with 5 μg/ml E. coli Tau, 56 RU with 5 μg/m HEK Tau, and 500 RU with a 1:20 diluted solution of the AD-PHF material. Two 60 s cycles of 10 mM Glycine (pH1.7) were used for regeneration. Flow rates of 10 μl/min were used for immobilization and regeneration while a 30 μl/min flow rate was used for analyte binding. For AD-PHF, multiple manual injections were applied to reach 500 RU, including EDC/NHS and EtoA capping. Five start-up cycles and 12 cycles per mFab sample or buffer control were applied, using 90 μl analyte injections for either 180 s or 300 s for dissociation. 11 1:3 dilutions of a 600 nM solution plus buffer were used for each mFab. AB1 was analyzed using the BIAcore test.

[7] = target: T4, monomeric Tau isoform-2 derived from mammalian HEK293 cells (human, UniProt P10636 2-758); assay: as above
T4 construct: also called HEK iso-2; HEK Tau
Experimental: as §1

[8] = target: T1, Tau from human Alzheimer's disease …; assay: SPR, Biacore T200, AD-PHF fraction 11 amine-immobilised, mFab as analyte
Experimental: as §1

T1 sequence (P10636 other isoform, or with tags, fused parts or gaps limits assumed): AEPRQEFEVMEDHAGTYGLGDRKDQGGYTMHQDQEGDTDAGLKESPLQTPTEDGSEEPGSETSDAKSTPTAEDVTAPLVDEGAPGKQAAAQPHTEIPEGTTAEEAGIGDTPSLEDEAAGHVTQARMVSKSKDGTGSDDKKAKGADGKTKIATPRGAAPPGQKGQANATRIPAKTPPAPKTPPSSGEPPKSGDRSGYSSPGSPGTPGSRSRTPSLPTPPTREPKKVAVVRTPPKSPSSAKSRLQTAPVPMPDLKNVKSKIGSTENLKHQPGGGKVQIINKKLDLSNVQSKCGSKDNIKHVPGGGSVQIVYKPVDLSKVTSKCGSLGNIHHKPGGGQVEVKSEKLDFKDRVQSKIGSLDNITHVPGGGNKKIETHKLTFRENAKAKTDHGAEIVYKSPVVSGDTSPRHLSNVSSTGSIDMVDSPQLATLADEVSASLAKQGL
T3 sequence (P10636 other isoform, or with tags, fused parts or gaps limits assumed): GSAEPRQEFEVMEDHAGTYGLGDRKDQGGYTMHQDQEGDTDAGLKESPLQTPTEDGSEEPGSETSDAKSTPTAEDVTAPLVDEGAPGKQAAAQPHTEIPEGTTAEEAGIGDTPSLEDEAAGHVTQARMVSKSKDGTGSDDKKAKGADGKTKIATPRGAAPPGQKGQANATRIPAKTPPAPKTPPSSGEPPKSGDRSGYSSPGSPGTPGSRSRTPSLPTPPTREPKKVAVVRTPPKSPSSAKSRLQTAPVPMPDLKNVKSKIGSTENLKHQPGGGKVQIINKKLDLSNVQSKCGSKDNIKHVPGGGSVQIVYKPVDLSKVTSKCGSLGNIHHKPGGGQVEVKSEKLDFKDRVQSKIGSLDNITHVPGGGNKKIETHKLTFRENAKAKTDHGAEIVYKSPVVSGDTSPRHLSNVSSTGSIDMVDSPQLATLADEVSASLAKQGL
human Tau P301L from brain of P301L Tau transgenic mice, sequence (P10636 other isoform, or with tags, fused parts or gaps P301L P301L P301L P301L limits assumed): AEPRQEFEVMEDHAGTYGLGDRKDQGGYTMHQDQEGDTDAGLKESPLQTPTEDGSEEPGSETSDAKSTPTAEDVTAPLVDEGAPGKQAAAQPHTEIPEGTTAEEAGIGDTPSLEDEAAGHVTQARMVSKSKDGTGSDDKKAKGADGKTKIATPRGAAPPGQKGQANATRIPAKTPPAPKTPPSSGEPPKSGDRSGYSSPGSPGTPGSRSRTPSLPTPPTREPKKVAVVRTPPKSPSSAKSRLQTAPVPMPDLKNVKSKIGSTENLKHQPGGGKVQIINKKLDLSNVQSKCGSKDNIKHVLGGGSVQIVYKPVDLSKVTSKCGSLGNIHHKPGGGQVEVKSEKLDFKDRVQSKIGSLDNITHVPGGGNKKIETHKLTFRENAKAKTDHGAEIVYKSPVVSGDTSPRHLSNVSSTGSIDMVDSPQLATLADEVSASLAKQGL

B1: Tau-binding antibody having the light chain of SEQ ID No.: 14 and the heavy chain of SEQ ID No.:17 (antibody, human IgG4 S228P, kappa, V domains shown)
VH: EVQLQESGPGLVKPSETLSLTCTVSGFSLTSNDIAWIRQPPGKGLEWMGTIWTDGSTNYNAAVQSRVTISVDTSKNQFSLKLSSVTAADTAVYYCARHRLYYGAFDYWGQGTMVTVSS
VL: DIVMTQTPLSLSVTPGQPASISCRSSQSLEYSDGYTYLEWYLQKPGQSPQLLIYEVSNRFSGVPDRFSGSGSGTDFTLKISRVEAEDVGVYYCFQATHNPYTFGQGTKLEIKR
IC50 (cellular Tau aggregation assay) [1]: 11 nM
Imax (maximal efficacy at 300 nM, cellular Tau aggregation assay) [1]: 98%

B3: Tau-binding antibody having the light chain of SEQ ID No.: 14 and the heavy chain of SEQ ID No.:18 (antibody, human IgG4 S228P, kappa, V domains shown)
VH: EVQLQESGPGLVKPSETLSLTCTVSGFSLTSNDIAWIRQPPGKGLEWMGTIWTDGSTNYNTAVQSRVTISVDTSKNQFSLKLSSVTAADTAVYYCARHRLYYGAFDYWGQGTMVTVSS
VL: DIVMTQTPLSLSVTPGQPASISCRSSQSLEYSDGYTYLEWYLQKPGQSPQLLIYEVSNRFSGVPDRFSGSGSGTDFTLKISRVEAEDVGVYYCFQATHNPYTFGQGTKLEIKR
IC50 (cellular Tau aggregation assay) [1]: 12 nM
Imax (maximal efficacy at 300 nM, cellular Tau aggregation assay) [1]: 98%
IC50 (cellular Tau aggregation assay) [3]: 42 nM
Imax (maximal efficacy at 300 nM, cellular Tau aggregation assay) [3]: 100%
IC50 (cellular Tau aggregation assay) [4]: 1 nM
Imax (maximal efficacy at 300 nM, cellular Tau aggregation assay) [4]: 99%

B5: mFab AB1 having a rat VL of SEQ ID No.: 7 and a rat VH of SEQ ID No.: 8 (Fab, V domains shown)
VH: EVKLEESGPGLMQPSETLSLTCTVSGFSLTSNDIAWVRQPLGKGLVWMGTIWTDGSTNYNSAVQSRLSISRDTSKSQFFLKMNSLQPEDTGTYYCARHRLYYGAFDYWGQGTMVTVS
VL: DIVMTQTPVSLSVTLGDQASISCRSSQSLEYSDGYTYLEWYLQKPGQSPQLLIYEVSNRFSGVPDRFIGSGSGTDFTLKISRVEPEDLGVYYCFQATHNPYTFGAGTKLEIK
notes: also called AB1 Fab; anti-Tau mFab
Kd [6]: 160 nM
koff [6]: 0.011 s⁻¹
kon [6]: 69000 M⁻¹ s⁻¹ and 73000 M⁻¹ s⁻¹
Kd [7]: 160 nM and 170 nM
koff [7]: 0.011 s⁻¹
kon [7]: 70000 M⁻¹ s⁻¹ and 66000 M⁻¹ s⁻¹
Kd [8]: 190 nM and 180 nM
koff [8]: 0.0096 s⁻¹ and 0.008 s⁻¹
kon [8]: 52000 M⁻¹ s⁻¹ and 44000 M⁻¹ s⁻¹

More lines, now with the values ahead:

binding result [2]: binds
B2: L14H18 Fab (Fab, V domains shown)
VH: EVQLQESGPGLVKPSETLSLTCTVSGFSLTSNDIAWIRQPPGKGLEWMGTIWTDGSTNYNTAVQSRVTISVDTSKNQFSLKLSSVTAADTAVYYCARHRLYYGAFDYWGQGTMVTVSS
VL: DIVMTQTPLSLSVTPGQPASISCRSSQSLEYSDGYTYLEWYLQKPGQSPQLLIYEVSNRFSGVPDRFSGSGSGTDFTLKISRVEAEDVGVYYCFQATHNPYTFGQGTKLEIKR
notes: also called L14H18 Fab fragment; L14H18 Fab protein

IC50 (cellular Tau aggregation assay) [1]: 4 nM
Imax (maximal efficacy at 300 nM, cellular Tau aggregation assay) [1]: 98%
IC50 (cellular Tau aggregation assay) [4]: 3 nM
Imax (maximal efficacy at 300 nM, cellular Tau aggregation assay) [4]: 97%
IC50 (cellular Tau aggregation assay) [5]: 30 nM
Imax (maximal efficacy at 300 nM, cellular Tau aggregation assay) [5]: 89%
B4: AB1 having a rat VL of SEQ ID NO: 7 and a rat VH of SEQ ID NO.:8 (antibody, IgG1, V domains shown)
VH: EVKLEESGPGLMQPSETLSLTCTVSGFSLTSNDIAWVRQPLGKGLVWMGTIWTDGSTNYNSAVQSRLSISRDTSKSQFFLKMNSLQPEDTGTYYCARHRLYYGAFDYWGQGTMVTVS
VL: DIVMTQTPVSLSVTLGDQASISCRSSQSLEYSDGYTYLEWYLQKPGQSPQLLIYEVSNRFSGVPDRFIGSGSGTDFTLKISRVEPEDLGVYYCFQATHNPYTFGAGTKLEIK
